Experimental data: patent US20210275641A1 (SYNTHEKINE, published 2021)

T1: human high affinity trimeric IL-2 receptor (CD25/CD122/CD132) (human, UniProt P01589 22-272; P14784 27-551; P31785 23-369)
T1 sequence 1: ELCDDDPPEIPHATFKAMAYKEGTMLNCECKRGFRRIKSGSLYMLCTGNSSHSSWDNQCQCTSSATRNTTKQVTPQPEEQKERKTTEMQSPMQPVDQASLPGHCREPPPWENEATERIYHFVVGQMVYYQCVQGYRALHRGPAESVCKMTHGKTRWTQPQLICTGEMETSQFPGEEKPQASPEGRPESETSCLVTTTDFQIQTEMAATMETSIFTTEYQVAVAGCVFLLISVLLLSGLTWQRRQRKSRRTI
T1 sequence 2: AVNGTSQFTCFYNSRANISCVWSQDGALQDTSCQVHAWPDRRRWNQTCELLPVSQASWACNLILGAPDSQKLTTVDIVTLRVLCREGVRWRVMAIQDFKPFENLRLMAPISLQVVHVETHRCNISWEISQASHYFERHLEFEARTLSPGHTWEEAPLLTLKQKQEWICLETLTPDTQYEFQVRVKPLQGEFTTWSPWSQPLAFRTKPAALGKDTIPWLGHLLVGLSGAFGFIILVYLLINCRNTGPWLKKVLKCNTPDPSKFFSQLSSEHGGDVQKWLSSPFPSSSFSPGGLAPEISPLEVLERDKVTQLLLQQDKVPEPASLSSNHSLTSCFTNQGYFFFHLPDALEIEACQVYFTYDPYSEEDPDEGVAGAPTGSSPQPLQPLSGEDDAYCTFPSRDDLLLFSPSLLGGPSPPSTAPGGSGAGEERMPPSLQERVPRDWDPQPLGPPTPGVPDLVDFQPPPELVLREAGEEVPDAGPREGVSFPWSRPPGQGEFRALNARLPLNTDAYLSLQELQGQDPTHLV
T1 sequence 3: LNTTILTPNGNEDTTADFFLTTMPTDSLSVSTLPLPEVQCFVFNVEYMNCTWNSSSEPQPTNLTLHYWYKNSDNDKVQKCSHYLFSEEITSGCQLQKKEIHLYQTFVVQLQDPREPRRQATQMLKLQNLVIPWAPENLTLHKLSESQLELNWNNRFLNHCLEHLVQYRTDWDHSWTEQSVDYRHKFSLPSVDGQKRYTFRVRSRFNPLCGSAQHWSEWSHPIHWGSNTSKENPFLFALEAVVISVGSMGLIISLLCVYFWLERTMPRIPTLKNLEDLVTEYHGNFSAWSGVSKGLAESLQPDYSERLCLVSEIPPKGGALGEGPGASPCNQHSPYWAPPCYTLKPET


Target: T1, human high affinity trimeric IL-2 …
Assay: cell-based or functional assay

pSTAT5 ratio YT CD25/YT, dilution factor 2, lower table	pSTAT5 ratio YT CD25/YT, dilution factor 2, upper table	pSTAT5 ratio YT CD25/YT, dilution factor 4, lower table	pSTAT5 ratio YT CD25/YT, dilution factor 4, upper table	pSTAT5 ratio YT CD25/YT, dilution factor 8, lower table	pSTAT5 ratio YT CD25/YT, dilution factor 8, upper table	pSTAT5 ratio YT CD25/YT, dilution factor 16, lower table	pSTAT5 ratio YT CD25/YT, dilution factor 16, upper table	pSTAT5 ratio YT CD25/YT, dilution factor 32, lower table	pSTAT5 ratio YT CD25/YT, dilution factor 32, upper table	pSTAT5 ratio YT CD25/YT, dilution factor 64, lower table	pSTAT5 ratio YT CD25/YT, dilution factor 64, upper table	pSTAT5 ratio YT CD25/YT, dilution factor 128, lower table	pSTAT5 ratio YT CD25/YT, dilution factor 128, upper table	Binder
0.8	0.9	0.9	1	1	1.1	1.3	1.3	1.6	1.8	2.4	2.9	3.9	4.7	hIL2 mutein REH (L18R, Q22E, Q126H) (ligand) APTSSSTKKTQLQLEHLRLDLEMILNGINNYKNPKLTRMLTFKFYMPKKATELKHLQCLEEELKPLEEVLNLAQSKNFHLRPRDLISNINVIVLELKGSETTFMCEYADETATIVEFLNRWITFCHSIISTLT
	1.1		1.4		1.5		2.2		3.9		6.4		10	WEH (ligand) cytokine: APTSSSTKKTQLQLEHLWLDLEMILNGINNYKNPKLTRMLTFKFYMPKKATELKHLQCLEEELKPLEEVLNLAQSKNFHLRPRDLISNINVIVLELKGSETTFMCEYADETATIVEFLNRWITFCHSIISTLT
	0.9		1.2		1.3		1.4		1.7		2.9		4.7	FEH (ligand) cytokine: APTSSSTKKTQLQLEHLFLDLEMILNGINNYKNPKLTRMLTFKFYMPKKATELKHLQCLEEELKPLEEVLNLAQSKNFHLRPRDLISNINVIVLELKGSETTFMCEYADETATIVEFLNRWITFCHSIISTLT
	1.1		1.3		1.8		3.1		5.8		8.3		11.7	QEH (ligand) cytokine: APTSSSTKKTQLQLEHLQLDLEMILNGINNYKNPKLTRMLTFKFYMPKKATELKHLQCLEEELKPLEEVLNLAQSKNFHLRPRDLISNINVIVLELKGSETTFMCEYADETATIVEFLNRWITFCHSIISTLT
	1.4		2.3		4.8		8.4		14.7		16.9		17	EEH (ligand) cytokine: APTSSSTKKTQLQLEHLELDLEMILNGINNYKNPKLTRMLTFKFYMPKKATELKHLQCLEEELKPLEEVLNLAQSKNFHLRPRDLISNINVIVLELKGSETTFMCEYADETATIVEFLNRWITFCHSIISTLT
	1.1		1		1.1		1.4		1.6		2.3		4	KEH (ligand) cytokine: APTSSSTKKTQLQLEHLKLDLEMILNGINNYKNPKLTRMLTFKFYMPKKATELKHLQCLEEELKPLEEVLNLAQSKNFHLRPRDLISNINVIVLELKGSETTFMCEYADETATIVEFLNRWITFCHSIISTLT
